# According to IntAct's records for PubMed 36931259:
# B1: 14-3-3 protein sigma (Homo sapiens), P31947 (parent)
# chain: MERASLIQKAKLAEQAERYEDMAAFMKGAVEKGEELSCEERNLLSVAYKNVVGGQRAAWRVLSSIEQKSNEEGSEEKGPEVREYREKVETELQGVCDTVLGLLDSHLIKEAGDAESRVFYLKMKGDYYRYLAEVATGDDKKRIIDSARSAYQEAMDISKKEMPPTNPIRLGLALNFSVFHYEIANSPEEAISLAKTTFDEAMADLHTLSEDSYKDSTLIMQLLRDNLTLWTADNAGEEGGEAPQEPQS
# Variants of: B1
# Settings: with MAP3K14, Q99558
row,effect of a mutation on the interaction,Variant
1,decreasing interaction strength,K49E;R56E;V178D

# Variants of: B1
# Settings: with limk2_human LIMK2, P53671
row,effect of a mutation on the interaction,Variant
1,decreasing interaction strength,K49E;R56E;V178D

# Variants of: B1
# Settings: with m3k9_human MAP3K9, P80192
# Sequence of m3k9_human MAP3K9, P80192 (P80192 whole entry, looked up): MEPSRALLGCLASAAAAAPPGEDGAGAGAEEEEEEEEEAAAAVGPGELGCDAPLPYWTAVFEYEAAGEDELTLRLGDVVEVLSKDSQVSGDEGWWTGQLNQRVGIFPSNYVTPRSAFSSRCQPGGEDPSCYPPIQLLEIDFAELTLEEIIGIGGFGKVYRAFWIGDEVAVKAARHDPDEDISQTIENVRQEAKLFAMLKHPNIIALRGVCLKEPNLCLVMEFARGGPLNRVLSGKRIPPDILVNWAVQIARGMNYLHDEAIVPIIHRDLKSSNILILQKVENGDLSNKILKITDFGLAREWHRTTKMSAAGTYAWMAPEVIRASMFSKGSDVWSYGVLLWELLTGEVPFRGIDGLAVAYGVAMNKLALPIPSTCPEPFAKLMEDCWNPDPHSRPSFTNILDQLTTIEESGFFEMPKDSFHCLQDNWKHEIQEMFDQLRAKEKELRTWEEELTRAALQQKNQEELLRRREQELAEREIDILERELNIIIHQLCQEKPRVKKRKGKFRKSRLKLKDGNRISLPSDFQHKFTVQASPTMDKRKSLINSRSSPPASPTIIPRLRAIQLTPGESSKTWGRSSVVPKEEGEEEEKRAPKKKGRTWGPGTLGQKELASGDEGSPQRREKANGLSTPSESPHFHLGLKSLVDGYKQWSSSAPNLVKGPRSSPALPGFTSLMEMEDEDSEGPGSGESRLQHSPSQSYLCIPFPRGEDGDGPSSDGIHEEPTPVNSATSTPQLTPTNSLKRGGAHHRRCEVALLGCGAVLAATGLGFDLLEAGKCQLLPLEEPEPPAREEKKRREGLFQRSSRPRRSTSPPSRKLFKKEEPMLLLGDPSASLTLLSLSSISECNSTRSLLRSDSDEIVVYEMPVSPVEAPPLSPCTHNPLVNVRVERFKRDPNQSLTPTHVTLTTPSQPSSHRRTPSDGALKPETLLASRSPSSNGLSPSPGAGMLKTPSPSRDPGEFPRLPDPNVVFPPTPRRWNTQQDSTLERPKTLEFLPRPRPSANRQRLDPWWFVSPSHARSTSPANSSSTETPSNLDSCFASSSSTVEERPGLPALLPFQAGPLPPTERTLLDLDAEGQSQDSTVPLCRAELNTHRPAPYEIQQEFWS
row,effect of a mutation on the interaction,Variant
1,decreasing interaction strength,K49E;R56E;V178D

# Variants of: B1
# Settings: with tesk2_human TESK2, Q96S53
# Sequence of tesk2_human TESK2, Q96S53 (Q96S53 whole entry, looked up): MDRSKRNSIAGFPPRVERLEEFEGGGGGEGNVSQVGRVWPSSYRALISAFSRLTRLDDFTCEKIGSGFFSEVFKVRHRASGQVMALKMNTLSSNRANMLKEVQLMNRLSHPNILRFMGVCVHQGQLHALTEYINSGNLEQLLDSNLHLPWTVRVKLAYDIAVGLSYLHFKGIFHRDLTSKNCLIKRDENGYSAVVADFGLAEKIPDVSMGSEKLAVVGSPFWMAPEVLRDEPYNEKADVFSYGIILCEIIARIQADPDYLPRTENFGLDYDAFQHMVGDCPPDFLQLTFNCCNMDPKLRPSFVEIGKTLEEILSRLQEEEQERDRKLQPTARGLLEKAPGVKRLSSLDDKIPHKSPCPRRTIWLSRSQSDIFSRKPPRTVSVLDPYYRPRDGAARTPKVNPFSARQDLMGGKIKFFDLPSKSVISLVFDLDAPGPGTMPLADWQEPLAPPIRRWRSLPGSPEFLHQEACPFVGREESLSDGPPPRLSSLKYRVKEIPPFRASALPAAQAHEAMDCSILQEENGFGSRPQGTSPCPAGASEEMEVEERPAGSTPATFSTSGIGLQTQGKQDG
row,effect of a mutation on the interaction,Variant
1,decreasing interaction strength,K49E;R56E;V178D

# Variants of: B1
# Settings: with mk04_human MAPK4, P31152
row,effect of a mutation on the interaction,Variant
1,decreasing interaction strength,K49E;R56E;V178D

# Variants of: B1
# Settings: with wnk1_human WNK1, Q9H4A3
row,effect of a mutation on the interaction,Variant
1,decreasing interaction strength,K49E;R56E;V178D

# Variants of: B1
# Settings: with abl1_human ABL1, P00519
row,effect of a mutation on the interaction,Variant
1,decreasing interaction strength,K49E;R56E;V178D

# Variants of: B1
# Settings: with mast2_human MAST2, Q6P0Q8
row,effect of a mutation on the interaction,Variant
1,decreasing interaction strength,K49E;R56E;V178D

# Variants of: B1
# Settings: with dyr1b_human DYRK1B
row,effect of a mutation on the interaction,Variant
1,decreasing interaction strength,K49E;R56E;V178D

# Variants of: B1
# Settings: with wnk4_human WNK4, Q96J92
row,effect of a mutation on the interaction,Variant
1,decreasing interaction strength,K49E;R56E;V178D

# Variants of: B1
# Settings: with clk3_human CLK3, P49761
# Sequence of clk3_human CLK3, P49761 (P49761 whole entry, looked up): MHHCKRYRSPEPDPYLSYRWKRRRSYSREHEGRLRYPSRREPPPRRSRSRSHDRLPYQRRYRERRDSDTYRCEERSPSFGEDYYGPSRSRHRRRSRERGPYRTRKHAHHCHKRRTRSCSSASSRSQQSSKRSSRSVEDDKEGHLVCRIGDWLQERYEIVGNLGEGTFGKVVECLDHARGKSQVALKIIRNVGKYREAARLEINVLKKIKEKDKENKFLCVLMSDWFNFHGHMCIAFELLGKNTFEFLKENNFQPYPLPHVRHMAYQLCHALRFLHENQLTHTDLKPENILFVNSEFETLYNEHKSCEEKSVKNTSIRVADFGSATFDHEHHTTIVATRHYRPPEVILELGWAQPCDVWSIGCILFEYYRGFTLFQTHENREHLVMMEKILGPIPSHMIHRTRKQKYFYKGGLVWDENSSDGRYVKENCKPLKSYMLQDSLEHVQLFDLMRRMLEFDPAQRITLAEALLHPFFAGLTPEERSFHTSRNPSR
row,effect of a mutation on the interaction,Variant
1,decreasing interaction strength,K49E;R56E;V178D

# Variants of: B1
# Settings: with cdk18_human CDK18, Q07002
# Sequence of cdk18_human CDK18, Q07002 (Q07002 whole entry): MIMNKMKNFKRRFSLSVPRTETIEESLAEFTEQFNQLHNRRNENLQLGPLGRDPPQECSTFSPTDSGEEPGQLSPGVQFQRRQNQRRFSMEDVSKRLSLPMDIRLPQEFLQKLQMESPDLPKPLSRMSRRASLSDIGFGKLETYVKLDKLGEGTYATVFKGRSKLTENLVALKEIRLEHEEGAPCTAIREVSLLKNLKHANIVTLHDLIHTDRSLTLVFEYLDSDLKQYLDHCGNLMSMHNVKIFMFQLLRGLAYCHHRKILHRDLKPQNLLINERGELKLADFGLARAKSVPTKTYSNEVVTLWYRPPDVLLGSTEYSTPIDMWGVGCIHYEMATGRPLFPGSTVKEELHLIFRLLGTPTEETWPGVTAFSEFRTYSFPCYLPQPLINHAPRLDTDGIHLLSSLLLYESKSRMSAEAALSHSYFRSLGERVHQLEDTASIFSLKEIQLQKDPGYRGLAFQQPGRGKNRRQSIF
row,effect of a mutation on the interaction,Variant
1,decreasing interaction strength,K49E;R56E;V178D

# Variants of: B1
# Settings: with lck_human LCK
row,effect of a mutation on the interaction,Variant
1,decreasing interaction strength,K49E;R56E;V178D

# Variants of: B1
# Settings: with ntrk3_human NTRK3, Q16288
row,effect of a mutation on the interaction,Variant
1,decreasing interaction strength,K49E;R56E;V178D

# Variants of: B1
# Settings: with mp2k7_human MAP2K7, O14733
# Sequence of mp2k7_human MAP2K7, O14733 (O14733 whole entry): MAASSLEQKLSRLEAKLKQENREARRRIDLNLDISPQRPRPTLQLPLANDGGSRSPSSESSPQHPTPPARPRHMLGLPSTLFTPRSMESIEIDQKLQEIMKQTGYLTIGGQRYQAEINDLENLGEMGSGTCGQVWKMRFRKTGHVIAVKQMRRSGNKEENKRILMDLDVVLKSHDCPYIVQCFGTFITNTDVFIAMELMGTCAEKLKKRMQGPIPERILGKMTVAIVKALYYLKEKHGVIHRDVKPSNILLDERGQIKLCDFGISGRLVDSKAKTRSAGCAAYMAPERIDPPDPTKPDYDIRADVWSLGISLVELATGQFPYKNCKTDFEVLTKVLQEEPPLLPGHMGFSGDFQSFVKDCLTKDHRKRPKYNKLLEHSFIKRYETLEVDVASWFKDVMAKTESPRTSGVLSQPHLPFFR
row,effect of a mutation on the interaction,Variant
1,decreasing interaction strength,K49E;R56E;V178D

# Variants of: B1
# Settings: with kkcc1_human CAMKK1, Q8N5S9
row,effect of a mutation on the interaction,Variant
1,decreasing interaction strength,K49E;R56E;V178D

# Variants of: B1
# Settings: with tesk1_human TESK1, Q15569
row,effect of a mutation on the interaction,Variant
1,decreasing interaction strength,K49E;R56E;V178D

# Variants of: B1
# Settings: with ilk_human ILK
row,effect of a mutation on the interaction,Variant
1,decreasing interaction strength,K49E;R56E;V178D

# Variants of: B1
# Settings: with srpk3_human SRPK3, Q9UPE1
row,effect of a mutation on the interaction,Variant
1,decreasing interaction strength,K49E;R56E;V178D

# Variants of: B1
# Settings: with btk_human BTK
row,effect of a mutation on the interaction,Variant
1,decreasing interaction strength,K49E;R56E;V178D

# Variants of: B1
# Settings: with kpce_human PRKCE
row,effect of a mutation on the interaction,Variant
1,decreasing interaction strength,K49E;R56E;V178D

# Variants of: B1
# Settings: with plk2_human PLK2, Q9NYY3
row,effect of a mutation on the interaction,Variant
1,decreasing interaction strength,K49E;R56E;V178D

# Variants of: B1
# Settings: with st32c_human STK32C
row,effect of a mutation on the interaction,Variant
1,decreasing interaction strength,K49E;R56E;V178D

# Variants of: B1
# Settings: with mylk2_human MYLK2, Q9H1R3
row,effect of a mutation on the interaction,Variant
1,decreasing interaction strength,K49E;R56E;V178D

# Variants of: B1
# Settings: with ripk2_human RIPK2, O43353
row,effect of a mutation on the interaction,Variant
1,decreasing interaction strength,K49E;R56E;V178D

# Variants of: B1
# Settings: with m4k4_human MAP4K4, O95819
row,effect of a mutation on the interaction,Variant
1,decreasing interaction strength,K49E;R56E;V178D

# Variants of: B1
# Settings: with kc1d_human CSNK1D
row,effect of a mutation on the interaction,Variant
1,decreasing interaction strength,K49E;R56E;V178D

# Variants of: B1
# Settings: with ks6a2_human RPS6KA2, Q15349
# Sequence of ks6a2_human RPS6KA2, Q15349 (Q15349 whole entry): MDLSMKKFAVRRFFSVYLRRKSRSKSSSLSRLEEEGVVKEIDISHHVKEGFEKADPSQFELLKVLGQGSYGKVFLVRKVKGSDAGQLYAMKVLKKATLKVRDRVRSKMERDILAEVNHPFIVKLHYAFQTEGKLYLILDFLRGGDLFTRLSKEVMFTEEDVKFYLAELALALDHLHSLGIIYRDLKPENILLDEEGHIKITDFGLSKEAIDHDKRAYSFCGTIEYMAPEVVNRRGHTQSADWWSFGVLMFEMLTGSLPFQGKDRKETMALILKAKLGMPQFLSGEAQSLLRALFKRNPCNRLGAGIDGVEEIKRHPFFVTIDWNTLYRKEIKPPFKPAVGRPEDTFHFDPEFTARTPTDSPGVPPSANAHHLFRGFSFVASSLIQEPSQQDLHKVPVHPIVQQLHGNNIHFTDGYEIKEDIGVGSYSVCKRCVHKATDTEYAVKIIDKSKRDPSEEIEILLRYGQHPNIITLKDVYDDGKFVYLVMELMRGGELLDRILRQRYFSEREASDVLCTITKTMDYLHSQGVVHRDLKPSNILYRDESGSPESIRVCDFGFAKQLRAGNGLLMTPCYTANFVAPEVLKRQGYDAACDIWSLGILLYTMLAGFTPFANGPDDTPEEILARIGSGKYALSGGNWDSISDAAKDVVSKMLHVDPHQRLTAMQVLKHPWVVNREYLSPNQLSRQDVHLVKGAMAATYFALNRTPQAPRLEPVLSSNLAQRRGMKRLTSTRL
row,effect of a mutation on the interaction,Variant
1,decreasing interaction strength,K49E;R56E;V178D

# Variants of: B1
# Settings: with alpk1_human ALPK1, Q96QP1
row,effect of a mutation on the interaction,Variant
1,decreasing interaction strength,K49E;R56E;V178D

# Variants of: B1
# Settings: with kc1e_human CSNK1E
row,effect of a mutation on the interaction,Variant
1,decreasing interaction strength,K49E;R56E;V178D

# Variants of: B1
# Settings: with kpcg_human PRKCG
row,effect of a mutation on the interaction,Variant
1,decreasing interaction strength,K49E;R56E;V178D

# Variants of: B1
# Settings: with fak2_human PTK2B
row,effect of a mutation on the interaction,Variant
1,decreasing interaction strength,K49E;R56E;V178D

# Variants of: B1
# Settings: with cdk3_human CDK3, Q00526
row,effect of a mutation on the interaction,Variant
1,decreasing interaction strength,K49E;R56E;V178D

# Variants of: B1
# Settings: with limk1_human LIMK1, P53667
# Sequence of limk1_human LIMK1, P53667 (P53667 whole entry, looked up): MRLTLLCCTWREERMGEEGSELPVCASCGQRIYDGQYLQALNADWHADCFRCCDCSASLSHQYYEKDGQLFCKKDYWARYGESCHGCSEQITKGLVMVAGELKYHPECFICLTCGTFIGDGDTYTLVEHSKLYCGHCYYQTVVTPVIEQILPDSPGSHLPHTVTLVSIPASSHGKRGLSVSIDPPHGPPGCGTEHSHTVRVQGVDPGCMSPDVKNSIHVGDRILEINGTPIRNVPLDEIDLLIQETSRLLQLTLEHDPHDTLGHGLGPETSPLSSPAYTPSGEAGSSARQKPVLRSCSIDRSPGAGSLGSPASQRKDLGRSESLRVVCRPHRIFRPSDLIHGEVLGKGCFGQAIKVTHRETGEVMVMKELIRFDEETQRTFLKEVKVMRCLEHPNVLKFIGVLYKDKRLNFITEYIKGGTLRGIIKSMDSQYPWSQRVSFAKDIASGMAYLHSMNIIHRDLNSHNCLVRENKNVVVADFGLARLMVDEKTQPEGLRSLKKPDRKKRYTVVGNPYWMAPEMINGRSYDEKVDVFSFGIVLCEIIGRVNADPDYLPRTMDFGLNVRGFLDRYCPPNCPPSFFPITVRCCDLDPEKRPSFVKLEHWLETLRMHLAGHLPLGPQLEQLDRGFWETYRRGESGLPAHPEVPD
row,effect of a mutation on the interaction,Variant
1,decreasing interaction strength,K49E;R56E;V178D

# Variants of: B1
# Settings: with pak6_human PAK6, Q9NQU5
row,effect of a mutation on the interaction,Variant
1,decreasing interaction strength,K49E;R56E;V178D

# Variants of: B1
# Settings: with igf1r_human IGF1R
row,effect of a mutation on the interaction,Variant
1,decreasing interaction strength,K49E;R56E;V178D

# Variants of: B1
# Settings: with aapk2_human PRKAA2, P54646
row,effect of a mutation on the interaction,Variant
1,decreasing interaction strength,K49E;R56E;V178D

# Variants of: B1
# Settings: with pak4_human PAK4, O96013
# Sequence of pak4_human PAK4, O96013 (O96013 whole entry, looked up): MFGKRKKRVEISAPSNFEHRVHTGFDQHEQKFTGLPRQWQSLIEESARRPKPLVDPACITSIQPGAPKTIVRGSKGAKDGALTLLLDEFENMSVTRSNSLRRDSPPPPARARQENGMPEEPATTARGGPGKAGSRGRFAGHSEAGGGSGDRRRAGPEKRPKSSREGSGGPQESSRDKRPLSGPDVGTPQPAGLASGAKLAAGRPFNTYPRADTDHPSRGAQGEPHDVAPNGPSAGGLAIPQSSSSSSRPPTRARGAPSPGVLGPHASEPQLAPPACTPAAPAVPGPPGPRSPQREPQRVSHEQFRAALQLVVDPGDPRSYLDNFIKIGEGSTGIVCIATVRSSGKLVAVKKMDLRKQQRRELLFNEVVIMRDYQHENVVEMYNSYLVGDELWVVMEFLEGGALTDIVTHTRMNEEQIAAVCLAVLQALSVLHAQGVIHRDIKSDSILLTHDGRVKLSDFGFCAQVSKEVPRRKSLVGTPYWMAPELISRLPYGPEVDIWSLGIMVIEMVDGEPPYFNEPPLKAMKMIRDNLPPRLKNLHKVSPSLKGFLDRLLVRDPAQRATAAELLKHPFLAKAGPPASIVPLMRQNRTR
row,effect of a mutation on the interaction,Variant
1,decreasing interaction strength,K49E;R56E;V178D

# Variants of: B1
# Settings: with pgfra_human PDGFRA
row,effect of a mutation on the interaction,Variant
1,decreasing interaction strength,K49E;R56E;V178D

# Variants of: B1
# Settings: with cdk17_human CDK17, Q00537
row,effect of a mutation on the interaction,Variant
1,decreasing interaction strength,K49E;R56E;V178D

# Variants of: B1
# Settings: with mink1_human MINK1, Q8N4C8
row,effect of a mutation on the interaction,Variant
1,decreasing interaction strength,K49E;R56E;V178D

# Variants of: B1
# Settings: with kcc2d_human CAMK2D
row,effect of a mutation on the interaction,Variant
1,decreasing interaction strength,K49E;R56E;V178D

# Variants of: B1
# Settings: with kcc2a_human CAMK2A
row,effect of a mutation on the interaction,Variant
1,decreasing interaction strength,K49E;R56E;V178D

# Variants of: B1
# Settings: with dapk2_human DAPK2, Q9UIK4
row,effect of a mutation on the interaction,Variant
1,decreasing interaction strength,K49E;R56E;V178D

# Variants of: B1
# Settings: with m4k1_human MAP4K1, Q92918
row,effect of a mutation on the interaction,Variant
1,decreasing interaction strength,K49E;R56E;V178D

# Variants of: B1
# Settings: with erbb4_human ERBB4, Q15303
row,effect of a mutation on the interaction,Variant
1,decreasing interaction strength,K49E;R56E;V178D

# Variants of: B1
# Settings: with bub1b_human BUB1B
row,effect of a mutation on the interaction,Variant
1,decreasing interaction strength,K49E;R56E;V178D
